According to PMC7343212, “Lactoferrin-Hexon Interactions Mediate CAR-Independent Adenovirus Infection of Human Respiratory Cells” (Journal of Virology, 2020):
“Also recorded” adds a separate entry of the source.

Assays:
[1] = test system: epithelial and T cells (species C HAdVs); settings: ref [15], cited from earlier work
Text: This is surprising, as hLF usually exerts antimicrobial functions ([22][–][24]), as well as preventing virus attachment to target cells and/or inhibiting virus replication ([25][–][27]). hLF is produced largely by neutrophils, but also by primary epithelial cells, and it is naturally present in a vast majority of body fluids in concentrations of up to several mg/ml, where it protects epithelia from pathogens ([28][–][31]). […] In this study, we investigated the molecular mechanisms behind hLF-dependent infection. As a first step, we investigated the structural features whereby hLF mediates HAdV-C5 infection of human respiratory A549 cells. In total, we used three different types of lactoferrin, namely, hLF purified from human tear fluid (present in several mg/ml), a recombinant form of hLF produced in Aspergillus with a human amino acid backbone but with a high-mannose glycosylation pattern ... || Utilization of hLF/hLfcin by species C HAdVs could also account for the frequent and persistent infections of species C HAdVs in tonsil T lymphocytes in young children ([56]). […] Taken together, our results highlight the ingenuity of HAdVs and explain how they may ensure efficient infection in a very hos ...

[2] = biological target: HAdV-A31 hexon; assay: Surface plasmon resonance, HAdV-A31 hexon immobilized; format: binding; settings: analyte hLF, HBS-EP+ pH 7.4, 25°C, average from three independent measurements
Experimental: (§1) Ten flasks of 70% confluent A549 cells were infected with HAdV-C5, HAdV-A31, or HAdV-B35. After initial inoculation, unbound virus was washed away, and approximately 30 ml of fresh medium (DMEM plus 20 mM HEPES [N-2-hydroxyethylpiperazine-NN-2-ethanesulfonic acid] plus 5% FBS) was added. At 48 h after infection, the cells were harvested by scraping into a small volume of DMEM, centrifuged, and resuspended in 6 ml of DMEM. The collected cells were lysed and the sample cleared by centrifugation. Virus was separated from soluble viral components by a CsCl gradient, as described previously ([59]). After ultracentrifugation, the top phase containing soluble viral components was recovered, and HAdV hexons were purified using monoclonal hexon antibodies (MAB8052) covalently attached to magnetic protein A/G beads (Pierce) using dimethyl pimelimidate (DMP) according to the manufacturer’s instructions. Bound hexons were washed three times using PBS to remove protein bound unspecifically, followed by elution in 50 μl of 200 mM glycine buffer at pH 2.5.
CM5 sensor chips, an amine-coupling kit, and HBS-EP+ buffer (10 mM HEPES, 150 mM NaCl, 3 mM EDTA, and 0.005% [vol/vol] surfactant P20 [pH 7.4]) were all purchased from GE Healthcare. All surface plasmon resonance (SPR) experiments were performed at 25°C in HBS-EP+ running buffer with adenovirus hexons immobilized on the sensor surface. In addition, all experiments were performed with the same batch of LF/Lfcin. Data were collected with a Biacore T200 instrument at a rate of 1 Hz. HAdV hexons were coupled to the CM5 sensor chip by amine coupling reactions according to the manufacturer’s instructions, aiming for an immobilization density of 900 to 1,100 resonance units (RU). The surface of the upstream flow cell was used as a reference and was subjected to the same coupling reaction in the absence of protein. […]

[3] = biological target: T1, HAdV-C5 hexon (Human adenovirus C serotype 5, UniProt P04133); assay: Surface plasmon resonance, HAdV-C5 hexon immobilized; format: binding
T1 construct: the top phase containing soluble viral components was recovered, and HAdV hexons were purified using monoclonal hexon antibodies; made in house; host or cells: A549 cells infected with wild-type HAdV-C5 (strain Ad75)
Experimental: as §1
(§2) CM5 sensor chips, an amine-coupling kit, and HBS-EP+ buffer (10 mM HEPES, 150 mM NaCl, 3 mM EDTA, and 0.005% [vol/vol] surfactant P20 [pH 7.4]) were all purchased from GE Healthcare. All surface plasmon resonance (SPR) experiments were performed at 25°C in HBS-EP+ running buffer with adenovirus hexons immobilized on the sensor surface. In addition, all experiments were performed with the same batch of LF/Lfcin. Data were collected with a Biacore T200 instrument at a rate of 1 Hz. HAdV hexons were coupled to the CM5 sensor chip by amine coupling reactions according to the manufacturer’s instructions, aiming for an immobilization density of 900 to 1,100 resonance units (RU). The surface of the upstream flow cell was used as a reference and was subjected to the same coupling reaction in the absence of protein. The analytes were serially diluted in running buffer to prepare a 2-fold concentration series ranging from 8 nM to 2 μM and then injected in series over reference and experimental biosensor surfaces for 120 sec at a flow rate of 30 μl/min. Blank samples containing only running buffer were also injected under the same conditions to allow for double referencing. After each cycle, the biosensor surface was regenerated with a 60-sec pulse of 10 mM Tris-glycine (pH 1.5) at a flow rate of 30 μl/min.

[4] = biological target: HAdV-B35 hexon; assay: Surface plasmon resonance, HAdV-B35 hexon immobilized; format: binding
Experimental: as §1, §2

[5] = test system: human respiratory epithelial A549 cells (HAdV-C5_GFP); assay: HAdV-C5_GFP transduction of A549 cells; format: cell-based
Text: For all transduction experiments, GFP-expressing vectors were used. The HAdV_GFP vector was purchased from Vector Development Laboratory. All mutated HAdV-C5 vectors were generated in the laboratory of A. Plückthun at the University of Zürich using the AdEasy system (Agilent) to contain an internal ribosome entry site (IRES)-luciferase (Luc)-GFP cassette for detection of transduction. To investigate the role of integrins in transduction, HAdV-C5-IRES-GFP with an intact RGD loop in the penton base protein (-DMNDHAIRGDTFATRAE-) and HAdV-C5-ΔRGD-IRES-GFP (-DMNDTSRAEEKRAE-), known not to bind integrins ([40]), were generated. To determine the binding site for hLF/hLfcin on the hexon protein, hexon-mutated vectors were produced with HVR-1 of HAdV-C5 ([43]) replaced with the corresponding sequence of HAdV-A31, as well as a HAdV-C5 vector mutated in HVR-7 ([44]).
For experiments in A549 cells, 15,000 cells were seeded into a black 96-well plate with a transparent bottom. For experiments with CHO-K1 cells, 20,000 cells were seeded. After 24 h, HAdV-C5 vectors was complexed with 2 μM Lfcin or with ∼12 μM (1 mg/ml) of LF and, after 60 min, added to the cells on ice. The blocking of CAR using soluble HAdV-C5 fiber knob was performed using 10 μg/ml of recombinant knob. After another 60 min, unbound complex was washed away using Dulbecco’s modified Eagle’s medium (DMEM), followed by final addition of fresh medium. After 44 h, the cells were fixed using 4% paraformaldehyde (PFA) for 10 min, and GFP expression was imaged using a Trophos system (Luminy Biotech Entreprises). For the hexon chimeric viruses, transduction was instead quantified by measuring the luciferase activity at 44 h postinfection using a Pierce luciferase glow assay kit.

[6] = association rate constant, analyte hLF, SPR, HBS-EP+ pH 7.4, 25°C, average from three independent measurements
[7] = dissociation rate constant, analyte hLF, SPR, HBS-EP+ pH 7.4, 25°C, average from three independent measurements

T1 sequence (P04133 2-952 limits assumed): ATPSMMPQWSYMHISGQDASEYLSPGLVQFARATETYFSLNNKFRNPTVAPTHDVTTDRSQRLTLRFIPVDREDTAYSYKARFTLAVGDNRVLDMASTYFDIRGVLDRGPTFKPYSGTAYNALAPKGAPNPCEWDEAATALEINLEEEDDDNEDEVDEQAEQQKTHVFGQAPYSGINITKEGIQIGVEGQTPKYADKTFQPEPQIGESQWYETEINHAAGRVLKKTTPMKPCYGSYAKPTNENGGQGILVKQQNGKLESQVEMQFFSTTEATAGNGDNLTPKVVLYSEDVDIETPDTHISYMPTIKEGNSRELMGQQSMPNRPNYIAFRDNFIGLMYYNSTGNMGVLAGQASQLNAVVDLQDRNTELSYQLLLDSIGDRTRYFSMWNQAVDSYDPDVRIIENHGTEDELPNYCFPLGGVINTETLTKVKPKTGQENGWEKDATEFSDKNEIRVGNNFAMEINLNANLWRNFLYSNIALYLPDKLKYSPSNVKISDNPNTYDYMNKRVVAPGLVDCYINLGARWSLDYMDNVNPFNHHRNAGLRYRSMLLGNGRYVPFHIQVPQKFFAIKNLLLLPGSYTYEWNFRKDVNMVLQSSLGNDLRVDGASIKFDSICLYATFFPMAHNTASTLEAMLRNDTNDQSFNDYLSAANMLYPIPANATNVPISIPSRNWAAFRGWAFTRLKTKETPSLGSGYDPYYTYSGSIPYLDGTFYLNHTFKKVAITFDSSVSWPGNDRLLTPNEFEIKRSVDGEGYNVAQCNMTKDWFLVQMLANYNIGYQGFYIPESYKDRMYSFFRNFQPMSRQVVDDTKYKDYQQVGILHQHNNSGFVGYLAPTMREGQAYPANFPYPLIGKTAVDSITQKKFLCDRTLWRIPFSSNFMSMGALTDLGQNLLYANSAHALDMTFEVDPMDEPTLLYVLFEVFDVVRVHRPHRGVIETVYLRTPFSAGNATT

| Molecule | effect on HAdV-C5 infection of CAR-negative T cells ([1]; CAR-negative T cells) | effect on species C HAdV infection [1] | Kd ([2]; SPR Biacore T200, HAdV-A31 hexon on CM5 chip, 2-fold series 8 nM to 2 μM) | ka ([2]; association rate constant, SPR) | kd ([2]; dissociation rate constant, SPR) | Kd ([3]; SPR Biacore T200, HAdV-C5 hexon amine-coupled on CM5 chip (900 to 1,100 RU), analyte hLF, 2-fold series 8 nM to 2 μM, HBS-EP+ pH 7.4, 25°C, average from three independent measurements) | affinity ratio, HAdV-C5 hexon stronger than HAdV-B35 hexon ([3]; SPR, 25°C, pH 7.4, HAdV-C5 versus HAdV-B35 hexon) | ka [3, 6] | kd [3, 7] | Kd ([4]; SPR Biacore T200, HAdV-B35 hexon on CM5 chip, analyte hLF, 2-fold series 8 nM to 2 μM, HBS-EP+ pH 7.4, 25°C, average from three independent measurements) | affinity ratio, HAdV-B35 hexon stronger than HAdV-A31 hexon ([4]; SPR, 25°C, pH 7.4, HAdV-B35 versus HAdV-A31 hexon) | ka [4, 6] | kd [4, 7] | increase of HAdV-C5_GFP transduction of A549 cells by LF ([5]; LF 1 mg/ml preincubated with HAdV-C5_GFP, GFP imaging after 44 h, mean from 3 to 5 independent experiments (Fig. 1A)) | prevention of transduction at high concentration ([5]; high, nonphysiological concentrations, data not shown, cell line not stated, also ref [15]) | effect of LF on HAdV-C5_GFP transduction of A549 cells (in words) ([5]; LF 1 mg/ml preincubated with HAdV-C5_GFP, GFP imaging after 44 h (Fig. 1A)) |
| --- | --- | --- | --- | --- | --- | --- | --- | --- | --- | --- | --- | --- | --- | --- | --- | --- |
| human lactoferrin (protein, UniProt P02788 20-710, looked up, Human LF purified from human tear fluid by size exclusion chromatography) Lactotransferrin: GRRRSVQWCAVSQPEATKCFQWQRNMRKVRGPPVSCIKRDSPIQCIQAIAENRADAVTLDGGFIYEAGLAPYKLRPVAAEVYGTERQPRTHYYAVAVVKKGGSFQLNELQGLKSCHTGLRRTAGWNVPIGTLRPFLNWTGPPEPIEAAVARFFSASCVPGADKGQFPNLCRLCAGTGENKCAFSSQEPYFSYSGAFKCLRDGAGDVAFIRESTVFEDLSDEAERDEYELLCPDNTRKPVDKFKDCHLARVPSHAVVARSVNGKEDAIWNLLRQAQEKFGKDKSPKFQLFGSPSGQKDLLFKDSAIGFSRVPPRIDSGLYLGSGYFTAIQNLRKSEEEVAARRARVVWCAVGEQELRKCNQWSGLSEGSVTCSSASTTEDCIALVLKGEADAMSLDGGYVYTAGKCGLVPVLAENYKSQQSSDPDPNCVDRPVEGYLAVAVVRRSDTSLTWNSVKGKKSCHTAVDRTAGWNIPMGLLFNQTGSCKFDEYFSQSCAPGSDPRSNLCALCIGDEQGENKCVPNSNERYYGYTGAFRCLAENAGDVAFVKDVTVLQNTDGNNNEAWAKDLKLADFALLCLDGKRKPVTEARSCHLAMAPNHAVVSRMDKVERLKQVLLHQQAKFGRNGSDCPDKFCLFQSETKNLLFNDNTECLARLHGKTTYEKYLGPQYVAGITNLKKCSTSPLLEACEFLRK | facilitates HAdV-C5 infection | efficiently increases species C HAdV infection; also recorded: all species C HAdVs infect epithelial and T cells more efficiently | 827 ± 55 nM | 12000 ± 1100 M⁻¹ s⁻¹ | 0.01011 ± 0.00024 s⁻¹ | 29 ± 3.6 nM | about 5 fold | 53000 ± 2600 M⁻¹ s⁻¹ | 0.00154 ± 0.00024 s⁻¹ | 151 ± 14 nM | 5 fold | 25000 ± 2500 M⁻¹ s⁻¹ | 0.00354 ± 0.00014 s⁻¹ | 4 fold | able to prevent transduction | – |
| rhLF: recombinant hLF produced in Aspergillus awamori, human amino acid backbone, high-mannose glycosylation pattern (protein, UniProt P02788 20-710, looked up, recombinant, expressed in Aspergillus awamori) Lactotransferrin: GRRRSVQWCAVSQPEATKCFQWQRNMRKVRGPPVSCIKRDSPIQCIQAIAENRADAVTLDGGFIYEAGLAPYKLRPVAAEVYGTERQPRTHYYAVAVVKKGGSFQLNELQGLKSCHTGLRRTAGWNVPIGTLRPFLNWTGPPEPIEAAVARFFSASCVPGADKGQFPNLCRLCAGTGENKCAFSSQEPYFSYSGAFKCLRDGAGDVAFIRESTVFEDLSDEAERDEYELLCPDNTRKPVDKFKDCHLARVPSHAVVARSVNGKEDAIWNLLRQAQEKFGKDKSPKFQLFGSPSGQKDLLFKDSAIGFSRVPPRIDSGLYLGSGYFTAIQNLRKSEEEVAARRARVVWCAVGEQELRKCNQWSGLSEGSVTCSSASTTEDCIALVLKGEADAMSLDGGYVYTAGKCGLVPVLAENYKSQQSSDPDPNCVDRPVEGYLAVAVVRRSDTSLTWNSVKGKKSCHTAVDRTAGWNIPMGLLFNQTGSCKFDEYFSQSCAPGSDPRSNLCALCIGDEQGENKCVPNSNERYYGYTGAFRCLAENAGDVAFVKDVTVLQNTDGNNNEAWAKDLKLADFALLCLDGKRKPVTEARSCHLAMAPNHAVVSRMDKVERLKQVLLHQQAKFGRNGSDCPDKFCLFQSETKNLLFNDNTECLARLHGKTTYEKYLGPQYVAGITNLKKCSTSPLLEACEFLRK | – | – | – | – | – | – | – | – | – | – | – | – | – | – | – | Neither bLF nor rhLF affected HAdV-C5_GFP transduction |
